The values below are quoted from earlier work in article PMC11145553.

The target in this series is LRP1 (Homo sapiens) (UniProt Q07954).

Chain of 2N4R tau (P10636 2-758): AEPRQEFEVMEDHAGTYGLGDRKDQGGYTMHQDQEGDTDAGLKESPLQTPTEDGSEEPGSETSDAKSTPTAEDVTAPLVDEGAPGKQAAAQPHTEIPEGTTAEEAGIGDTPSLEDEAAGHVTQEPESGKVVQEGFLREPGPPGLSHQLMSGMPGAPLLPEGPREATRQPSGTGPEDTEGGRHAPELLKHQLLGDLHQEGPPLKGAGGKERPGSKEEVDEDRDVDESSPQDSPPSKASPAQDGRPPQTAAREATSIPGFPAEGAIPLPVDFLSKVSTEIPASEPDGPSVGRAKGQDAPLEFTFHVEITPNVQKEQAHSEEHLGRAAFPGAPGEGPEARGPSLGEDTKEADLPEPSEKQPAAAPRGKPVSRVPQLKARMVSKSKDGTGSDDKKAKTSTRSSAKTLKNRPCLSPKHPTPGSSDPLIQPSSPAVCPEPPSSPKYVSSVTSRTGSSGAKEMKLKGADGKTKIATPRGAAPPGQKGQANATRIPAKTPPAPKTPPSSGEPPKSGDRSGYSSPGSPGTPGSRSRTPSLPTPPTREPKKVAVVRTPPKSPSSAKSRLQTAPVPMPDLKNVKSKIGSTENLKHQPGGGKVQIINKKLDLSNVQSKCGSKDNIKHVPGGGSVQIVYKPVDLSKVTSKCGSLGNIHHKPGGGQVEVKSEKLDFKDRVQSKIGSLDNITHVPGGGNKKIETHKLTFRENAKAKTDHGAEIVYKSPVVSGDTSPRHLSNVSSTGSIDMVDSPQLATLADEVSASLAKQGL

For 2N4R tau (from UniProt P10636), the Kd was 60 nM.

In general, Kd refers to the equilibrium constant for the complex coming apart.
